Patent US11920136B2, “Transglutaminase-mediated conjugation” (Tallac Therapeutics, Inc., priority 2020, dated 2024)

B1: TNT50a: "an anti-mouse CD22 antibody (SEQ ID NO: 124 and SEQ ID NO: 125) conjugated to mouse CpG 4523 (SEQ ID NO: 121) of DAR1 configuration" (conjugate, listed as Mus musculus)
chain 1: QVQLQQPGAEIVRPGTSVKLSCKASGYTFTDYWMNWVKQRPGQGLEWFGAIDPSDSYTRYNQEFKGKATLTVDTSSTTAYMQLSSLTSEDSAVYFCARSDYTYSFYFDYWGLGTTLTVSS
chain 2: DIVMTQAAFSNPVTLGTSASISCRSSKSLLHSNGITYLYWYLQKPGQSPQLLIYQMSNLASGVPDRFSSSGSGTDFTLRISRVEAEDVGVYYCAQNLELPWTFGGGTKLEIK
DNA: tucgtcgtgacgtt
modifications: antibody-CpG conjugate, DAR1
B2: CD22 Ab-CpG conjugate: "anti-mouse CD22 antibody (SEQ ID NO: 124 and SEQ ID NO: 125) conjugated to mouse CpG 4523 (SEQ ID NO: 121) with a DAR1 configuration" (conjugate, listed as Mus musculus)
chain 1: QVQLQQPGAEIVRPGTSVKLSCKASGYTFTDYWMNWVKQRPGQGLEWFGAIDPSDSYTRYNQEFKGKATLTVDTSSTTAYMQLSSLTSEDSAVYFCARSDYTYSFYFDYWGLGTTLTVSS
chain 2: DIVMTQAAFSNPVTLGTSASISCRSSKSLLHSNGITYLYWYLQKPGQSPQLLIYQMSNLASGVPDRFSSSGSGTDFTLRISRVEAEDVGVYYCAQNLELPWTFGGGTKLEIK
DNA: tucgtcgtgacgtt
modifications: antibody-CpG conjugate, DAR1

Columns and labels:
[1] = test system: EMT6 mouse mammary carcinoma cells; assay: EMT6 breast cancer model (checkpoint inhibitor refractory), intraperitoneal dosing; assay type: in vivo, BALB/c mice; settings: intraperitoneally 2 doses every 3, 5 or 7 days at 10 mg/kg
Experimental: EMT6 mouse mammary carcinoma cells (ATCC) were cultured in Complete RPMI 1640 (RPMI1640+10% FBS (Gibco)) at 37° C. and 5% CO2. Cells were detached with Trypsin 0.25% (Gibco) and washed twice with RPMI 1640 (Gibco). Cells were resuspended at 20E6/mL in RPMI 1640 and kept on ice until use. 100 uL of suspended cells were subcutaneously implanted into the right flank of 6 week old female BALB/c mice (Charles River). Tumor size was measured and recorded twice a week with calipers starting 3 days post implantation until duration of the study, approximately 35 days later. Tumor volume was calculated using the following formula: (length×width×width)/2. Once tumors reached on average 75 mm^3, approximately 3 days post implantation, mice were randomized by tumor size and treatments were initiated. […] TNT50a conjugates were administered intraperitoneally 2 doses every 3, 5 or 7 days at 10 mg/kg.

[2] = test system: CT26 mouse colon carcinoma cells; assay: CT26 model, anti-PD1 non-responders; assay type: in vivo, BALB/c mice; settings: conjugate intravenously 2 doses every 3 days at 10 mg/kg; anti-PD1 intraperitoneal 10 mg/kg
Experimental: 100 uL of suspended cells were subcutaneously implanted into the right flank of 6 week old female BALB/c mice (Charles River).

[3] = test system: EMT6 mouse mammary carcinoma cells; assay: EMT6 breast cancer model, intratumoral administration; assay type: in vivo, BALB/c mice; settings: intratumorally 2 doses every 3 days at 24 uM
Experimental: 100 uL of suspended cells were subcutaneously implanted into the right flank of 6 week old female BALB/c mice (Charles River). Tumor size was measured and recorded twice a week with calipers starting 7 days post implantation until duration of the study, approximately 25 days later. Tumor volume was calculated using the following formula: (length×width×width)/2. Once tumors reached on average 180 mm^3, approximately 7 days post implantation, mice were randomized by tumor size and treatments were initiated.

spleens and tumors = assay: Immunophenotyping of spleen and tumor in syngeneic models (A20, CT26, EMT6); assay type: in vivo, BALB/c mice; settings: 1 or 2 doses intraperitoneally every 3 days at 10 mg/kg
Experimental: Immunophenotyping of multiple syngeneic models administered with TNT50a were conducted. […] A20 B cell lymphoma, CT26 colon carcinoma, EMT6 mouse mammary carcinoma cells (ATCC) were cultured in Complete RPMI 1640 (RPMI1640+10% FBS (Gibco)) at 37° C. and 5% CO2. Cells were detached with Trypsin 0.25% (Gibco) and washed twice with RPMI 1640 (Gibco). Cells were resuspended at 20E6/mL in RPMI 1640 and kept on ice until use. 100 uL of suspended cells were subcutaneously implanted into the right flank of 6 week old female BALB/c mice (Charles River). Tumor size was measured with calipers. Tumor volume was calculated using the following formula: (length×width×width)/2. Once tumors reached on average 200-300 mm^3, mice were randomized by tumor size and treatments were initiated. The conjugates were administered 1 or 2 doses intraperitoneally every 3 days at 10 mg/kg.
Spleens and tumors were harvested either two or three days post-last injection for immunophenotyping. Spleens were processed into single-cell suspension in ice-cold PBS, lysed with ACK lysis buffer (Gibco), washed twice and re-suspended in PBS supplemented with 2% FBS. Tumor-derived single-cell suspensions were prepared using a cocktail of Collagenase A (Roche), Collagenase D (Roche) and DNAse (Roche) for 45 min at 37° C. […]

4T1 cells = assay: 4T1 lung metastatic burden; assay type: in vivo, BALB/C mice; settings: 10 mg/kg, 3 doses every 3 days; compared to the control

Molecule	anti-tumor efficacy [1]	tumor volume in anti-PD1 non responders [2]	anti-tumor potency [3]	immune cell changes in spleen and tumor (spleens and tumors)	number of metastatic plaques (4T1 cells)
B1	showed anti-tumor efficacy in all three dosing regimens	tumor volume was reduced			
B2			showed anti-tumor potency	promotes B cell differentiation, decrease in Bregs, increase in T cell effector function and modulation of suppressive myeloid cells	significantly reduced
